Assay results as given in patent publication US10221404B2, “Method for modifying characteristics of a lipase” (Novozymes A/S, priority 2014, dated 2019).

Key:
[1] = Hydrolytic activity, kinetic assay with p-nitrophenyl acyl esters; assay type: biochemical; conditions: substrates C3, C6, C10, C12, C16 at 1 mM; 50 mM Tris pH 7.7, 0.4% TritonX-100; 405 nm for 5 minutes
Protocol: The hydrolytic activity of RmL with and without propeptide on various fatty acids was investigated in a kinetic assay using p-nitrophenyl acyl esters as substrate. The 100 mM stock solutions in DMSO of the substrates: p-Nitrophenyl butyrate (C3), p-Nitrophenyl caproate (C6), p-Nitrophenyl caprate (C10), p-Nitrophenyl laurate (C12) and p-Nitrophenyl palmitate (C16) (all from Sigma-Aldrich Danmark NS, Kirkebjerg Allé 84, 2605 Brondby; Cat. no.: C3:N-9876, C6: N-0502, C10: N-0252, C12: N-2002, C16: N-2752) were diluted to a final concentration of 1 mM into assay buffer (50 mM Tris; pH 7.7; 0.4% TritonX-100).
RmL with and without propeptide and appropriate controls: Buffer (negative), Lipex™ (positive) RmL with and without propeptide in 50 mM Hepes pH8.0; 10 ppm TritonX-100; 20 mM CaCl2 were added to the substrate solution in the following final concentrations: 0.01 mg/mL; 5×10^−3 mg/mL; […]; and 1.25×10^−4 mg/mL in 96-well NUNC plates (Cat. No: 260836, Kamstrupvej 90, DK-4000, Roskilde). Release of p-nitrophenol by hydrolysis of p-nitrophenyl acyl was monitored at 405 nm for 5 minutes in 10 second intervals on a Spectra max 190 (Molecular Devices GmbH, Bismarckring 39, 88400 Biberach an der Riss, GERMANY).

[2] = Thermostability by Differential Scanning Calorimetry (DSC); assay type: physicochemical; conditions: 50 mM HEPES, 100 mM NaCl, 1 mM CaCl2, pH8.0; heating rate 200 K/hr
Protocol: The thermostability of Rhizomucor miehei lipase, RmL (SEQ ID NO: 3) with or without non covalently bound native propeptide (SEQ ID NO: 4) was determined by Differential Scanning calorimetry (DSC) using a VP-Capillary Differential Scanning calorimeter (MicroCal Inc., Piscataway, N.J., USA).
The thermal denaturation temperature, Td (° C.), was taken as the top of denaturation peak (major endothermic peak) in thermograms (Cp vs. T) obtained after heating enzyme solutions in buffer (50 mM HEPES; 100 mM NaCl; 1 mM CaCl2; pH8.0) at a constant programmed heating rate of 200 K/hr. RmL without propeptide added was analyzed at a concentration of 0.42 mg/mL, where as in presence of propeptide the concentration of RmL was 0.34 mg/mL as a consequence of mixing of 440 uL enzyme solution (at 0.42 mg/mL) and 100 uL peptid solution at a concentration of 480 uM (concentration determined by amino acid analysis)
Sample- and reference-solutions (approx. 0.2 mL) were loaded into the calorimeter (reference: buffer without enzyme) from storage conditions for 3 hours (mixing) at 10° C. and thermally pre-equilibrated for approx. 20 minutes at 20° C. prior to DSC scan from 20° C. to 100° C. Denaturation temperatures were determined at an accuracy of approximately +/−1° C.

[3] = AMSA wash performance, propeptide dose response; conditions: Model B/50 mM glycine pH 8; normalized to wash performance without inhibitor; 3 hours incubation at 4° C.
Protocol: (§1) Washing experiments were performed using Automatic Mechanical Stress Assay (AMSA) in order to assess the wash performance in laundry. The AMSA plate has a number of slots for test solutions and a lid firmly squeezing the laundry sample, the textile to be washed against all the slot openings. During the washing time, the plate, test solutions, textile and lid were vigorously shaken to bring the test solution in contact with the textile and apply mechanical stress in a regular, periodic oscillating manner. For further description see WO02/42740 especially the paragraph “Special method embodiments” at page 23-24.
(§2) The laundry experiments were conducted in Model Detergent B, pH8. The experimental conditions are specified below:
(§3) Final adjustments to the specified pH were done with NaOH or citric acid. Water hardness was adjusted to 15° dH by addition of CaCl2 and MgCl2 (Ca^2+:Mg^2+=4:1) to the test system.
(§4) After washing the textiles were flushed in tap water and excess water was removed from the textiles using filter paper and immediately thereafter the textiles were dried at 85° C. for 5 min.
(§5) The wash performance was measured as the color change of the washed soiled textile. The soil was cream mixed with turmeric. Turmeric contains the colorant curcumin, which function as a pH indicator by having pH dependent color change. Lipase activity leads to release of free fatty acids from the cream acylglycerides and this leads to pH decrease and thereby color change of the curcumin pH indicator. Lipase wash performance can therefore be expressed as the extent of color change of light reflected-emitted from the washed soiled textile when illuminated with white light.
Color measurements were made with a professional flatbed scanner (EPSON EXPRESSION 10000XL, Atea NS, Lautrupvang 6, 2750 Ballerup, Denmark), which was used to capture an image of the washed soiled textile. […]
(§6) Color change due to lipase activity was measured as the increase in the reflection-emitting of green light (G) relative to the sum of reflected-emitted blue (B) and red (R) light. The wash performance (RP(Wash)) of a lipase relative to a reference lipase (Lipolase™) was calculated as: RP(Wash)=(G/(B+R)(tested lipase)−G/(B+R)(no enzyme))/(G/(B+R)(lipase ref.)−G/(B+R)(no enzyme)).
The inhibitory effect of the isolated propeptide (PP) was determined by mixing isolated propeptide in molar excess with separately purified active RmL core-enzyme at increasing molar ratios of propeptide to lipase. […] After 3 hours incubation at 4° C. lipase wash performance of the incubated lipase-inhibitor samples were determined by Automatic Mechanical Stress Assay (AMSA) as described above. […]

[4] = AMSA wash performance, specificity of inhibitory effect of propeptide
Protocol: as §1, §2, §3, §4, §5
(§7) Color measurements were made with a professional flatbed scanner (EPSON EXPRESSION 10000XL, Atea NS, Lautrupvang 6, 2750 Ballerup, Denmark), which was used to capture an image of the washed soiled textile. To extract a value for the light intensity from the scanned images, 24-bit pixel values from the image were converted into values for red, green and blue (RGB).
as §6
The inhibitory specificity of the isolated propeptide was determined by mixing the isolated propeptide in a 320:1 molar ratio with 5 different lipases including the active RmL. All enzymes were diluted in 10 mM succinic acid buffer, pH6.5, to a concentration of 1.5 uM and were mixed (1:1) with purified propeptide dilutions. After 3 hours incubation at 4° C. the lipase performance of the incubated lipase-inhibitor samples were determined by Automatic Mechanical Stress Assay (AMSA) as described above. The relative wash performance “RP(wash)” is for each lipase normalized to the wash performance without inhibitor.

[5] = AMSA wash performance after activation with detergent and/or protease; parameters: key to No (RP) / Det (RP) / Sav (RP) / Det + Sav (RP): wash performance relative to reference lipase (Lipolase), RP ratio
Protocol: as §1, §2, §3, §4, §5, §7, §6
Wild type RmL without or with propeptide respectively were submitted to no, detergent, protease or detergent+protease treatment prior to performance test in AMSA to test the activation level of the lipase after the treatment. […] […] Wash performance of all samples were determined by Automatic Mechanical Stress Assay (AMSA) as described above.

B1: RmL: Rhizomucor miehei lipase mature protein (SEQ ID NO: 3), without propeptide (protein, listed as Rhizomucor miehei)
chain: SIDGGIRAATSQEINELTYYTTLSANSYCRTVIPGATWDCIHCDATEDLKIIKTWSTLIYDTNAMVARGDSEKTIYIVFRGSSSIRNWIADLTFVPVSYPPVSGTKVHKGFLDSYGEVQNELVATVLDQFKQYPSYKVAVTGHSLGGATALLCALDLYQREEGLSSSNLFLYTQGQPRVGDPAFANYVVSTGIPYRRTVNERDIVPHLPPAAFGFLHAGEEYWITDNSPETVQVCTSDLETSDCSNSIVPFTSVLDHLSYFGINTGLCT
- hydrolytic activity on p-nitrophenyl acyl esters [1]: activity in all conditions tested
- Thermostability Td at pH 8.0 [2]: 61 °C
- RP (wash) Rep. 1 [3]: 1.00
- RP (wash) Rep. 2 [3]: 1.00
- RP (wash) Rep. 3 [3]: 1.00
- RP (wash) Rep. 4 [3]: 1.00
- With inhibitor RP (wash) ([4]; propeptide SEQ ID No: 4 in 320:1 molar ratio, 3 hours at 4° C., normalized to wash performance without inhibitor): 0.02
- No inhibitor RP (wash) ([4]; without propeptide SEQ ID No: 4, normalized per lipase): 1.00
- No (RP) ([5]; 60 minutes in 10 mM succinic acid pH6.5): 1.00
- Sav (RP) ([5]; 60 minutes in 1.35% (v/v) Savinase in 10 mM succinic acid pH6.5): 0.99
- Det + Sav (RP) ([5]; 60 minutes in 1.35% (v/v) Savinase in 77% (w/w) Detergent B): 0.84
- Det (RP) ([5]; 60 minutes in 77% (w/w) Model detergent B): 0.89
